Results: patent US20200392219A1, “EXTRACELLULAR VESICLES COMPRISING MEMBRANE-TETHERED TGF-BETA, COMPOSITIONS AND METHODS OF USE THEREOF” (TRUSTEES OF TUFTS COLLEGE, priority 2017, published 2020)

Tested on: CD4+ T cells (ConA-stimulated PBMC)
Test: ConA mitogen-induced CD4+ T cell proliferation in CFSE-stained PBMC (PBMC responder/suppression assay)
Format: cell-based, canine
Conditions: for effect of pre-treating WJ-MSC EV on their suppression of CD4+ T cell division: 0.1% Triton-X, 2 μg/ml RNAse A, proteinase K 30 min 37°C, heparinase 0.006 U/ml 3 hours, 10^4 EV:1 PBMC
Procedure: Serum-free culture medium from canine Wharton's Jelly mesenchymal stem cells (WJ-MSC: CD44^+, CD90^+, CD34^−, CD45^−, MHCII^−, n=6 cell lines) was collected after 48 hours, and extracellular vesicles (WJ-EV) were isolated by differential centrifugation. WJ-EV output was assessed using single vesicle nanoparticle tracking analysis (NTA). CFSE-stained peripheral blood mononuclear cells (PBMC) were collected from healthy dogs (n=8), exposed to Concanavalin A mitogen (ConA; 5 μg/ml) and co-incubated with WJ-MSC (1:10) across transwell membrane (0.4 μm pore size) or with WJ-MSC EV (1:10^4)±10 μM SB431542 (TGFβR1 inhibitor) or TGF-β neutralizing (e.g., inhibiting) antibody (Ab) for 72 hours. Analysis of CFSE fluorescence using FlowJo (v7.6.5) yielded % CD4^+ cells that had undergone division (T-cell proliferation).
PBMC responder assay: Twelve healthy adult purpose-bread Beagle dogs (5 neutered males, 7 spayed females) housed at the Laboratory Animal Medicine department at the Cummings School of Veterinary Medicine at Tufts University served as blood donors under an approved protocol. […] or WJ-MSC were tested in triplicate against a minimum of 3 different PBMC donor cell samples (see Figure legends for ‘n’ of each experiment). Healthy status was confirmed by clinical examination, and hematological and serum biochemical testing within six months of blood sampling. All dogs were fasted for 12 hours prior to peripheral blood sampling. Peripheral blood samples were taken via jugular venipuncture using a 21 gauge needle, and blood was immediately placed into an EDTA collection tube and rotated 1-2 times gently. Blood was diluted 1:1 with cold PBS or centrifuged (1300×g, 10 min) prior to dilution 1:2 in PBS, followed by density-gradient centrifugation using Ficoll-Paque (density 1.077; GE Healthcare Life Sciences) to harvest peripheral blood mononuclear cells (PBMC). PBMC were washed in RPMI (Life Technologies) supplemented with 10% heat-inactivated fetal bovine serum (Gibco), […] (Life Technologies), 100 μM β-mercaptoethanol (Sigma-Aldrich), 10,000 U/ml penicillin-streptomycin, 2 mM L-glutamine (Life Technologies), and 2.2 mg/mL of sodium bicarbonate (Thermo Fisher Scientific) (complete RPMI, ‘cRPMI’). For mitogen induced lymphocytes proliferation assays, PBMC were suspended in 1 ml cRPMI and 0.5 μof 10 mM carboxyfluorescein succinimidyl ester (CFSE, Thermo Fisher Scientific) and were incubated (10 min). For initial characterization of WJ-MSC effects on responder PBMC, PBMC were plated on a 24-well plate on the top of a 0.4 μm Transwell (Corning) across from the WJ-MSC in a 10:1 ratio (PBMC:MSC) in a total volume of 1 ml medium (n=3 technical replicates/sample). All plates were incubated at 37° C. in the dark for 72 hours prior to analysis.
Dose-responses of TV MSC-EV: To investigate the dose response of PBMC to WJ-MSC EV, the […] were plated on a 96-well plate in cRPMI with addition of 1 mM ATP, with or without 5 μg/ml Concanavalin A (ConA, Sigma-Aldrich). Responder PBMC were incubated with WJ-MSC EV in a total volume of 200 μL medium (n=3 technical replicates per sample). PBMC were incubated with WJ-MSC EV in a 1:10^2, 1:10^3, or 1:10^4 (PBMC:EV) ratio. After 72 hours of incubation, the PBMC were collected and surface stained for CD4 (rat anti-canine CD4-Alexa 647, clone YKIX302.9, AbD Serotec). Cells were stained for 30 minutes, washed twice with cold PBS and 5% FBS, and resuspended in 200 μl PBS and 5% FBS with 5 μl 7AAD (Becton Dickinson) for analysis by flow cytometry (Accuri C6, Becton Dickinson). The effect of WJ-MSC or WJ-MSC EV on CD4-positive (CD4^+) T cell (i.e., T helper cell) proliferation (percentage of cells proliferating, number of divisions for proliferating cells) was measured by evaluating CFSE fluorescence utilizing the FlowJo® proliferation platform (FlowJo, V10, Ashland, Oreg.) after gating on the viable CD4^+ lymphocyte population. […]

Row | Molecule | suppression of mitogen driven T cell division by exogenous TGF-β (5 ng/ml added to ConA stimulated PBMC) | suppression of mitogen driven T cell division by exogenous TGF-β (10 ng/ml added to ConA stimulated PBMC) | suppression of mitogen driven T cell division by exogenous TGF-β (50 ng/ml added to ConA stimulated PBMC) | effect of pre-treating WJ-MSC EV on their suppression of CD4+ T cell division
1 | TGF-β3: recombinant human TGF-β3 (Sigma) (protein, UniProt P10600 301-412, looked up) Transforming growth factor …: ALDTNYCFRNLEENCCVRPLYIDFRQDLGWKWVHEPKGYYANFCSGPCPYLRSADTTHSTVLGLYNTLNPEASASPCCVPQDLEPLTILYYVGRTPKVEQLSNMVVKSCKCS | not | suppressed | suppressed | 
2 | proteinase K: protease used with RNAse A to pre-treat EV (protein, UniProt P06873 106-384, looked up) Proteinase K: AAQTNAPWGLARISSTSPGTSTYYYDESAGQGSCVYVIDTGIEASHPEFEGRAQMVKTYYYSSRDGNGHGTHCAGTVGSRTYGVAKKTQLFGVKVLDDNGSGQYSTIIAGMDFVASDKNNRNCPKGVVASLSLGGGYSSSVNSAAARLQSSGVMVAVAAGNNNADARNYSPASEPSVCTVGASDRYDRRSSFSNYGSVLDIFGPGTSILSTWIGGSTRSISGTSMATPHVAGLAAYLMTLGKTTAASACRYIADTANKGDLSNIPFGTVNLLAYNNYQA |  |  |  | reduced
3 | RNase: RNAse A enzyme used to pre-treat EV (protein, UniProt P61823 27-150, looked up) Ribonuclease pancreatic: KETAAAKFERQHMDSSTSAASSSNYCNQMMKSRNLTKDRCKPVNTFVHESLADVQAVCSQKNVACKNGQTNCYQSYSTMSITDCRETGSSKYPNCAYKTTQANKHIIVACEGNPYVPVHFDASV |  |  |  | reduced
4 | heparinase: heparinase III (Sigma), disrupts heparin sulfate side chains on beta-glycan (protein, UniProt Q59289 25-659, looked up) Heparin-sulfate lyase: QSSSITRKDFDHINLEYSGLEKVNKAVAAGNYDDAAKALLAYYREKSKAREPDFSNAEKPADIRQPIDKVTREMADKALVHQFQPHKGYGYFDYGKDINWQMWPVKDNEVRWQLHRVKWWQAMALVYHATGDEKYAREWVYQYSDWARKNPLGLSQDNDKFVWRPLEVSDRVQSLPPTFSLFVNSPAFTPAFLMEFLNSYHQQADYLSTHYAEQGNHRLFEAQRNLFAGVSFPEFKDSPRWRQTGISVLNTEIKKQVYADGMQFELSPIYHVAAIDIFLKAYGSAKRVNLEKEFPQSYVQTVENMIMALISISLPDYNTPMFGDSWITDKNFRMAQFASWARVFPANQAIKYFATDGKQGKAPNFLSKALSNAGFYTFRSGWDKNATVMVLKASPPGEFHAQPDNGTFELFIKGRNFTPDAGVFVYSGDEAIMKLRNWYRQTRIHSTLTLDNQNMVITKARQNKWETGNNLDVLTYTNPSYPNLDHQRSVLFINKKYFLVIDRAIGEATGNLGVHWQLKEDSNPVFDKTKNRVYTTYRDGNNLMIQSLNADRTSLNEEEGKVSYVYNKELKRPAFVFEKPKKNAGTQNFVSIVYPYDGQKAPEISIRENKGNDFEKGKLNLTLTINGKQQLVLVP |  |  |  | reduced EV suppression
5 | heat-inactivated heparinase: heat-inactivated heparinase (control) (protein, UniProt Q59289 25-659, looked up, heat-inactivated) Heparin-sulfate lyase: QSSSITRKDFDHINLEYSGLEKVNKAVAAGNYDDAAKALLAYYREKSKAREPDFSNAEKPADIRQPIDKVTREMADKALVHQFQPHKGYGYFDYGKDINWQMWPVKDNEVRWQLHRVKWWQAMALVYHATGDEKYAREWVYQYSDWARKNPLGLSQDNDKFVWRPLEVSDRVQSLPPTFSLFVNSPAFTPAFLMEFLNSYHQQADYLSTHYAEQGNHRLFEAQRNLFAGVSFPEFKDSPRWRQTGISVLNTEIKKQVYADGMQFELSPIYHVAAIDIFLKAYGSAKRVNLEKEFPQSYVQTVENMIMALISISLPDYNTPMFGDSWITDKNFRMAQFASWARVFPANQAIKYFATDGKQGKAPNFLSKALSNAGFYTFRSGWDKNATVMVLKASPPGEFHAQPDNGTFELFIKGRNFTPDAGVFVYSGDEAIMKLRNWYRQTRIHSTLTLDNQNMVITKARQNKWETGNNLDVLTYTNPSYPNLDHQRSVLFINKKYFLVIDRAIGEATGNLGVHWQLKEDSNPVFDKTKNRVYTTYRDGNNLMIQSLNADRTSLNEEEGKVSYVYNKELKRPAFVFEKPKKNAGTQNFVSIVYPYDGQKAPEISIRENKGNDFEKGKLNLTLTINGKQQLVLVP |  |  |  | absent
